Results on six substances are retold here after patent publication US20100261220A1.

The test system of data set [1] is brain β-tubulin (taxotere-stabilized brain microtubules, Example VII).
Data set [2] has as its system brain α-tubulin (taxotere-stabilized brain microtubules, Example VII).
Data set [3] deals with adult murine brain tubulin.
The test system of data set [4] is young murine brain tubulin.
For data set [5], the system named is α-tubulin of taxotere-stabilized mouse brain microtubules.
Data set [6] deals with β-tubulin of taxotere-stabilized mouse brain microtubules (mouse). In words: cell-based or functional assay.
Data set [7] has as its target α-tubulin of taxotere-stabilized mouse brain microtubules (mouse). Put plainly: cell-based or functional assay.

Turning to “GFP-Ttll3Ap (Tetrahymena Ttll3Ap with N-terminal GFP)”, the “in vitro tubulin glycylation activity (3H-glycine incorporation)” value in data set [1] is “A GFP-Ttll3Ap-enriched extract showed a strong increase in glycylation activity on α- and β-tubulin”; in data set [2] it was “A GFP-Ttll3Ap-enriched extract showed a strong increase in glycylation activity on α- and β-tubulin”.

As for “GFP-Ttll3Bp (Tetrahymena Ttll3Bp with N-terminal GFP)”, the “in vitro tubulin glycylation activity (3H-glycine incorporation)” value in data set [2] is reported as “the GFP-Ttll3Bp-enriched extract had increased activity on α-tubulin”.

For “GFP-Ttll6Ap (full-length Tetrahymena Ttll6Ap with N-terminal GFP)”, the results for the “in vitro glutamylation of microtubules (3H-glutamate, fluorogram)” value (in [3]; in the data set with HeLa tubulin; in data set [4]) were “Enriched GFP-Ttll6Ap strongly modified microtubules made of adult brain tubulin”, “failed to detectably modify microtubules made of HeLa tubulin” and “less efficiently microtubules made of young brain tubulin”, respectively. The “in vitro glutamylation of unpolymerized tubulin (3H-glutamate, fluorogram)” value in data set [3] was “enriched GFP-Ttll6Ap did not modify unpolymerized adult brain tubulin”.

For the substance “Ttll1p-GFP (Tetrahymena thermophila Ttll1p with an N-terminal GFP)”, the “in vitro glutamylase activity of the anti-GFP immunoprecipitate” value in data set [5] is recorded as “a glutamylase activity directed mostly toward α-tubulin was co-immunoprecipitated with anti-GFP antibodies from extracts of overexpressing cells”.

Regarding “Ttll6ApΔ710-GFP (truncated Tetrahymena Ttll6Ap, amino acid codons 1-710, with N-terminal GFP)”, the “in vitro glutamylase activity” value in the data set on NAP proteins was “No in vitro activity toward NAP proteins was detected”.

Take “Ttll6ApΔ710-GFP (truncated Tetrahymena Ttll6Ap, amino acid codons 1-710, with N-terminal GFP) (from UniProt P42212 1-238) (enzyme)”: the in vitro glutamylase activity of extracts of overexpressing cells, compared to non-induced cells amounted to 100 fold in data set [6] and 10 fold in [7].
